This is an account of results in article doi:10.1101/2025.03.12.642038, “Structural, biophysical and biological analysis and characterisation of IRF4 DNA-binding domain mutations associated with multiple myeloma”.

Data set [1] deals with T1, IRF4 DBD S114R (Homo sapiens, UniProt Q15306 20-132, S114R).
T1 sequence: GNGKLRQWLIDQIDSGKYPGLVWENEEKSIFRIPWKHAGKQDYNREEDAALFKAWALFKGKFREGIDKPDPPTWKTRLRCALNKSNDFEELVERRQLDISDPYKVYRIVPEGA
The data set can be described thus: FP; FP: PBS + 0.05% Tween20, 5 nM DNA, 1 h, room temperature; SPR: Biacore S200, SA chip, protein 0.1-4500 nM, running buffer not given in material; errors are SD. As to conditions: protein: recombinant; tags: N-terminal His8-linker-His8-TEV, cleaved; label: 3' fluorescein (FAM); hairpin, TTTT loop. (In general: Surface plasmon resonance follows binding to a sensor surface in real time, without labels.)

Data set [2] deals with T2, IRF4 DBD C99A (Homo sapiens, UniProt Q15306 20-132, C99A).
T2 sequence: T1 sequence with C80A, R95S
The description is as above. As to conditions: protein: recombinant; tags: N-terminal His8-linker-His8-TEV, cleaved; label: 3' fluorescein (FAM); hairpin, TTTT loop.

Data set [3] has as its target T3, IRF4 DBD wild-type (Homo sapiens, UniProt Q15306 20-132).
T3 sequence: T1 sequence with R95S
The description is as above. As to conditions: protein: recombinant; tags: N-terminal His8-linker-His8-TEV, cleaved; label: 3' fluorescein (FAM); hairpin, TTTT loop.

Data set [4] has as its target T4, IRF4 DBD C99S (Homo sapiens, UniProt Q15306 20-132, C99S).
T4 sequence: T1 sequence with C80S, R95S
Described as above. The following applies: protein: recombinant; label: 3' fluorescein (FAM); hairpin, TTTT loop.

In data set [5] the target is T3, IRF4 DBD wild-type. The data set can be described thus: SPR two-state kinetic; FP: PBS + 0.05% Tween20, 5 nM DNA, 1 h, room temperature; SPR: Biacore S200, SA chip, protein 0.1-4500 nM, running buffer not given in material; errors are SD. As to conditions: protein: recombinant; tags: N-terminal His8-linker-His8-TEV, cleaved; label: 3' biotin; hairpin, TTTT loop.
Data set [6] concerns the target T5, IRF4 DBD T95A (Homo sapiens, UniProt Q15306 20-132, T95A).
T5 sequence: T1 sequence with T76A, R95S
The data set is described as above. As to conditions: protein: recombinant; tags: N-terminal His8-linker-His8-TEV, cleaved; label: 3' biotin; hairpin, TTTT loop.

Data set [7] has as its target T6, IRF4 DBD D106Y (Homo sapiens, UniProt Q15306 20-132, D106Y).
T6 sequence: T1 sequence with D87Y, R95S
Described as above. As to conditions: protein: recombinant; tags: N-terminal His8-linker-His8-TEV, cleaved; label: 3' biotin; hairpin, TTTT loop.

Data set [8] concerns the target T7, IRF4 DBD K59R (Homo sapiens, UniProt Q15306 20-132, K59R).
T7 sequence: T1 sequence with K40R, R95S
Described as above. As to conditions: protein: recombinant; tags: N-terminal His8-linker-His8-TEV, cleaved; label: 3' biotin; hairpin, TTTT loop.

In data set [9] the target is T8, IRF4 DBD K59N (Homo sapiens, UniProt Q15306 20-132, K59N).
T8 sequence: T1 sequence with K40N, R95S
The description is as above. As to conditions: protein: recombinant; tags: N-terminal His8-linker-His8-TEV, cleaved; label: 3' biotin; hairpin, TTTT loop.

In data set [10] the target is T9, IRF4 DBD K123R (Homo sapiens, UniProt Q15306 20-132, K123R).
T9 sequence: T1 sequence with R95S, K104R
The data set is described as above. As to conditions: protein: recombinant; tags: N-terminal His8-linker-His8-TEV, cleaved; label: 3' biotin; hairpin, TTTT loop.

Positions count from the first letter of the chain named.

B1: IRE hairpin (FAM) (structured_DNA)
DNA: CTTGGTTTCACTTCCTGCGTTTTCGCAGGAAGTGAAACCAAG
With B1, the dissociation constant Kd (commonly the constant that tells how readily two partners part at equilibrium) in [1] is 332 ± 162 nM; in [2], 353 ± 169 nM; in [3], 565 ± 191 nM; in data set [4], 243 ± 238 nM.

B2: IRE hairpin (biotin) (structured_DNA)
DNA: B1 DNA
B2: the Kd in [5] is 187 ± 143 nM; in [6] it was 305 ± 174 nM; in data set [7] it was 135 ± 121 nM; in data set [8] it was 460 ± 429 nM; in data set [9] it was 107 ± 133 nM; in data set [10], 1110 ± 341 nM.
